Test results reported in US20260258083A1 (Amgen, published 2026).
Where no end group is shown, it is not given here. [ ]: non-standard residue; d: D form. pGlu = O=C1CC[C@@H](C(=O)O)N1

B1: pE-DGNEELK (peptide)
peptide: [pGlu]DGNEELK
notes: Position 1 is written E for pE; also called CD3ε peptide

What was measured:
[1] = molecular target: T1, FLT3xCD3 TCE SEQ ID NO 93; experiment: KinExA equilibrium in solution, KD relative to peptide concentration, TCE 125 pM
T1 construct: Single-chain scFv-scFv-scFc T cell engager; also called FLT3×CD3ε TCE; FLT3_7 A8xCD3-scFc Bispecific HLE molecule

[2] = molecular target: T1, FLT3xCD3 TCE SEQ ID NO 93; experiment: KinExA equilibrium in solution, KD relative to peptide concentration, TCE 250 pM; alias in this row reads 20 k Linear Thioether
scFv region of I2C = molecular target: T2, scFv region of I2C; experiment: co-crystal structure used as input for the modelling
T2 construct: also called VH-VL of I2C

Binder	Kd [1] [nM]	Kd [2] [nM]	binding result (scFv region of I2C)
[pGlu]DGNEELKGK-OH (also: Lys 10 side chain linked via thioether (acetamide) to 4-arm 20 kDa PEG, TCE masking molecule) [73135-2]	0.0122	0.153	–
B1	–	–	binds
